Broadly, the IC50 is the concentration that inhibits the measured activity by half.

Results on one molecule are retold here after patent US20210261685A1 (Alector, published 2021).

Assay [1] addresses T1, cyno MerTK extracellular domain (ECD), recombinant (cynomolgus monkey, UniProt Q12866 21-505 (human entry)).
T1 construct: also called cynomolgus MerTK; not shown: polyHis tag or TEVS/Thrombin/murine IgG2a Fc tag
T1 chain: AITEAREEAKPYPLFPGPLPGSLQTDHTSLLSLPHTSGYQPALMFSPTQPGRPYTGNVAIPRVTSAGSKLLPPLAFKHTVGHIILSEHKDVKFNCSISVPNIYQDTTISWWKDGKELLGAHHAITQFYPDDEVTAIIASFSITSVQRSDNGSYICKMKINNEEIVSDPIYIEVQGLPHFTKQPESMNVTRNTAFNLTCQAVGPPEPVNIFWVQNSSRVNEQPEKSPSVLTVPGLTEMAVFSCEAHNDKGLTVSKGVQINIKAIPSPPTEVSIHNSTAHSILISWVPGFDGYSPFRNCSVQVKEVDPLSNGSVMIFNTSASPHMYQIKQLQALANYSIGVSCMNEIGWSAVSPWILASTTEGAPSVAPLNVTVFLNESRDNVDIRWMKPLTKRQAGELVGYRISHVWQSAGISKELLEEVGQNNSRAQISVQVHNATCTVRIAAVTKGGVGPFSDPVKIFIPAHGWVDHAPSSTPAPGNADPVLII
Kind of assay: SPR, Carterra LSA.

Assay [2] concerns the target T2, human MerTK endogenously expressed on cells (SK-MEL-5 cells; human macrophages) (human, UniProt Q12866 21-999).
T2 sequence: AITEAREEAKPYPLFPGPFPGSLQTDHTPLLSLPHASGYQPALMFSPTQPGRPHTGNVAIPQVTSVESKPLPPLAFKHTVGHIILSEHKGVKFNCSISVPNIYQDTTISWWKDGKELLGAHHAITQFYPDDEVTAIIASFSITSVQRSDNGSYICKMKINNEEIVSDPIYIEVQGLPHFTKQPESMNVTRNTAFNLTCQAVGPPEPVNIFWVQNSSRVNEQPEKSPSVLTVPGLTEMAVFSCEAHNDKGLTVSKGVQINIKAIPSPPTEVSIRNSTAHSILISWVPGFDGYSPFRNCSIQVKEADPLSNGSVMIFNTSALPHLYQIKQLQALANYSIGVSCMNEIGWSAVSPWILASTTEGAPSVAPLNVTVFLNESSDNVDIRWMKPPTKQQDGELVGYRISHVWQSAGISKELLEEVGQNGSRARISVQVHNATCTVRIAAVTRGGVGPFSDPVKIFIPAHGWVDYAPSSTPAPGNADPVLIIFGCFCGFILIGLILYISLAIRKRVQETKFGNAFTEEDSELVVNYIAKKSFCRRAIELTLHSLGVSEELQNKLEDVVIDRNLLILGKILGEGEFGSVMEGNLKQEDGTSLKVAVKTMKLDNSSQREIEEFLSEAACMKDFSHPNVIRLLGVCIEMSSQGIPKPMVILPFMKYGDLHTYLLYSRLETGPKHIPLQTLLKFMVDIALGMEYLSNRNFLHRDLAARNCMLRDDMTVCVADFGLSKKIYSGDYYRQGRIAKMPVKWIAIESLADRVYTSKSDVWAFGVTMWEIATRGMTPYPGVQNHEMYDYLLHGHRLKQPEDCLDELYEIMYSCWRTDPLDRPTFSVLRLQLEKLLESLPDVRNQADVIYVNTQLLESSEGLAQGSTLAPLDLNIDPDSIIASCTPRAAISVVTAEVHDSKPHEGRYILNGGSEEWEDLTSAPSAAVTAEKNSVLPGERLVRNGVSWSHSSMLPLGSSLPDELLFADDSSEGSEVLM
Kind of assay: cell-based or functional assay.

Assay [3] has as its target T3, Recombinant human MerTK human Fc Chimera protein (R&D systems, Cat #391-MR-100) (human, UniProt Q12866 26-499, limits assumed).
T3 construct: Bought; also called recombinant human MerTK protein; MerTK-Fc
T3 sequence: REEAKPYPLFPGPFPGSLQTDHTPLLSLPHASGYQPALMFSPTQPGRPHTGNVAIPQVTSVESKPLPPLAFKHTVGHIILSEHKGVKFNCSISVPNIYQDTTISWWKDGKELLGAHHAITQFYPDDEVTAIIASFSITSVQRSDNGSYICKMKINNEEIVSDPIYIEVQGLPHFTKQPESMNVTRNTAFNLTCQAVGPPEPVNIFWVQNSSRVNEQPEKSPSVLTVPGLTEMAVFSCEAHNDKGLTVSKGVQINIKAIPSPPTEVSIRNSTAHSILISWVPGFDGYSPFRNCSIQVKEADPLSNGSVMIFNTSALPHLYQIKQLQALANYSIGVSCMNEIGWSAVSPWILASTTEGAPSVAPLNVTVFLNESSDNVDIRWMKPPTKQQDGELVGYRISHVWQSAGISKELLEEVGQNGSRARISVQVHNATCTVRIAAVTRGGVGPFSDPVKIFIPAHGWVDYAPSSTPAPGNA
In words: competition ELISA, His-ProS on captured MerTK-Fc. The protocol: Rabbit anti-human IgG polyclonal antibody (Jackson ImmunoResearch, Cat #309-005-008) was captured to a high-protein binding plate at 2 μg/ml 4° C. overnight. After washing with 0.05% Tween20 in PBS three times, 5% BSA in PBS was added for 1 hour. Recombinant human MerTK human Fc Chimera protein (R&D systems, Cat #391-MR-100) was added at 2 μg/ml for 1 hour and the plates were then washed. Anti-MerTK antibodies were titrated to final concentration range of between 66.6 nM to 4 pM and then 40 μl of serially diluted antibody and 40 μl of His tag-conjugated recombinant Gas6 protein (R&D systems, Cat #885-GSB-050) at 3 μg/ml or His tag-conjugated recombinant ProS protein (R&D systems, Cat #9489-PS-100) at 20 μg/ml. After a further incubation for 1 hour, plates were washed and incubated for 1 hour with HRP-conjugated anti-6×His tag antibody (Abcam, Cat #ab1187). Plates were then washed and an HRP substrate (TMB) was used to develop the plates. After sufficient color change was observed, the reaction was stopped by adding 50 μl 2N H₂SO₄ and the OD was measured using a spectrophotometer (BioTek).
From these experiments, IC50 values [nM] were determined using OD450 values obtained from the dose-response curves analyzed with Prism software. Table 14 and Table 15 show IC50 values determined for anti-MerTK antibody blocking of Gas6 ligand binding and ProS ligand binding to MerTK. […] Dashes indicate lack of significant blocking; “n.a.” indicates data not available.
(An ELISA detects its analyte on a solid surface through an enzyme-linked reagent.)

B1: MTK-09 (antibody, human IgG1, V domains shown)
VH: QVQLQQSGAELVRPGASVKISCKAFGYTFTNHHIKWVKQRPGQGLDWIGYIDPYNDYTTYNQNFKGKATLTVDKSSSTAYMELSSLTSEDSAVYYCARRAYDGYYVDWYFDVWGAGTTVTVSS
VL: DIVMTQSHKFMSTSVGDRVSITCKASQDVTTSVAWYHQKPGQSPELLIYSASYRYTGVPDRFTGSGSGTDFTFTISSVQAEDLAIYYCQQHYSTPLTFGSGTKLQLK
Take B1: the binding result in assay [1] is listed as “binds”. In addition, the “Gas6-mediated pAKT activity, average IC50, human M2c macrophages” value in assay [2] worked out at 1.67 nM. The IC50 in assay [3] is 7.84 nM.
